Source: the supplement of paper PMC12042874
± gives the uncertainty stated by the source.

Assay: amyloid nucleation score (Sup35N fusion, yeast selection) (log enrichment); library NNK1; higher = more nucleation; inactive = no reads after selection
Method in brief: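 Nucleation score: DiMSum log enrichment of output over input reads, centred on the mode score of non-aggregating sequences. Only sequences with at least 100 input reads were kept. Reads came from Illumina sequencing of plasmid inserts before and after 7 days of growth at 30°C without adenine and uracil, in psi-negative yeast expressing Sup35N fused to peptides of 20 random codons after 24 hours of induction with 100 μM copper sulfate.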

Question: Which amyloid nucleation score does the source give for DLFDFFRRRYHFRCFVSSIW here?
Answer: The amyloid nucleation score was -1.52 ± 2.4.

Question: With LYRCYESG as the substance, how does the amyloid nucleation score read?
Answer: The amyloid nucleation score was -0.378 ± 0.27.

Question: With VYGFDRFKVRRMGESLWWS as the substance, how does the amyloid nucleation score read?
Answer: Its amyloid nucleation score is “inactive”.

Question: Which amyloid nucleation score does the source give for GSFLRGPHPKNY here?
Answer: The amyloid nucleation score was 0.853 ± 0.66.

Question: With SEGMCIKLPVALNYSYVHLG as the substance, how does the amyloid nucleation score read?
Answer: Its amyloid nucleation score is 3.36 ± 0.088.

Question: With MDAFPEFLGVVFHSDDFGVP as the substance, how does the amyloid nucleation score read?
Answer: The amyloid nucleation score was -0.209 ± 0.39.

Question: For SSFSLGHVDGYKSTSVDAVL, which amyloid nucleation score is on record?
Answer: Its amyloid nucleation score is 0.048 ± 1.4.

Question: With RHCPLAVFRKSPLLAIGKFG as the substance, how does the amyloid nucleation score read?
Answer: Its amyloid nucleation score is -0.685 ± 0.66.

Question: For FRCGKGVVMSYELVNSIVGS, which amyloid nucleation score is on record?
Answer: The amyloid nucleation score was 0.407 ± 0.76.

Question: For SLHILISH, which amyloid nucleation score is on record?
Answer: Its amyloid nucleation score is 0.537 ± 0.39.

Question: Which amyloid nucleation score does the source give for ISGYQS here?
Answer: The amyloid nucleation score was 0.088 ± 0.64.

Question: For SSFQGPSYSSCIRQHRNTRI, which amyloid nucleation score is on record?
Answer: Its amyloid nucleation score is -0.614 ± 0.67.

Question: Which amyloid nucleation score does the source give for QALYSCDDYRGYRTSQCPRS here?
Answer: Its amyloid nucleation score is -1.13 ± 1.9.

Question: Which amyloid nucleation score does the source give for WQSCWIWTKCRTVDVRRKKD here?
Answer: Its amyloid nucleation score is -0.598 ± 0.43.

Question: With HRRRYAVNFSVEIMIRALG as the substance, how does the amyloid nucleation score read?
Answer: The amyloid nucleation score was -1 ± 1.6.

Question: Which amyloid nucleation score does the source give for SYRSEGAMETLIDGRLSDLS here?
Answer: Its amyloid nucleation score is 1.16 ± 0.76.

Question: With VLLFVRLILWTEGRYNCIMG as the substance, how does the amyloid nucleation score read?
Answer: Its amyloid nucleation score is -0.801 ± 1.2.

Question: Which amyloid nucleation score does the source give for LSERYVSTGVARDSGNAKVG here?
Answer: The amyloid nucleation score was 3.88 ± 0.11.

Question: With YALGVAFSQNSYDT as the substance, how does the amyloid nucleation score read?
Answer: Its amyloid nucleation score is 0.669 ± 0.63.

Question: For FCLSMVVDWVGR, which amyloid nucleation score is on record?
Answer: Its amyloid nucleation score is -0.342 ± 0.31.

Question: For CSRANRKGECG, which amyloid nucleation score is on record?
Answer: Its amyloid nucleation score is -0.62 ± 1.3.

Question: Which amyloid nucleation score does the source give for LFVNM here?
Answer: Its amyloid nucleation score is “inactive”.

Question: With LYANNMLSGILCNGFSTITS as the substance, how does the amyloid nucleation score read?
Answer: Its amyloid nucleation score is -0.339 ± 0.63.

Question: For FSIKHPLSSGSKISCVA, which amyloid nucleation score is on record?
Answer: The amyloid nucleation score was -1.23 ± 1.7.

Question: Which amyloid nucleation score does the source give for GKNTYVCVGSSASSFWGSLL here?
Answer: Its amyloid nucleation score is 0.86 ± 0.77.

Question: With LSVNICKKY as the substance, how does the amyloid nucleation score read?
Answer: Its amyloid nucleation score is 3.5 ± 0.1.

Question: For VRYFCTFLWWSTIRQAQYNI, which amyloid nucleation score is on record?
Answer: The amyloid nucleation score was 0.218 ± 0.78.

Question: Which amyloid nucleation score does the source give for YFYTSHFSLLTSTQFIYRLG here?
Answer: Its amyloid nucleation score is 0.392 ± 0.33.

Question: Which amyloid nucleation score does the source give for AIMCKYLRKLVLMFFSR here?
Answer: Its amyloid nucleation score is 0.811 ± 0.55.

Question: Which amyloid nucleation score does the source give for ICQRSRAGSGSEVLT here?
Answer: Its amyloid nucleation score is -0.205 ± 0.49.

Question: With NCECVFIPMKEPGFYR as the substance, how does the amyloid nucleation score read?
Answer: The amyloid nucleation score was -0.357 ± 0.63.

Question: For IVNNIVCSAGVDPFSQHCMD, which amyloid nucleation score is on record?
Answer: Its amyloid nucleation score is 1.84 ± 0.67.

Question: With MVCTYNVRCIEMETRYPRSR as the substance, how does the amyloid nucleation score read?
Answer: The amyloid nucleation score was 0.791 ± 0.97.

Question: For NLCRSNTRVQNAKKCAL, which amyloid nucleation score is on record?
Answer: Its amyloid nucleation score is -0.168 ± 0.26.

Question: For FCVWIGKEGD, which amyloid nucleation score is on record?
Answer: The amyloid nucleation score was 0.442 ± 0.51.

Question: For TRPLQYIQ, which amyloid nucleation score is on record?
Answer: Its amyloid nucleation score is -0.045 ± 1.1.

Question: Which amyloid nucleation score does the source give for GVVGVNSADLFNGKIVIKFS here?
Answer: The amyloid nucleation score was 1.81 ± 0.2.

Question: With NSFRWDLTLLLWARINVDSF as the substance, how does the amyloid nucleation score read?
Answer: The amyloid nucleation score was 1.49 ± 0.7.

Question: Which amyloid nucleation score does the source give for YCVTSMVRRLVKMLYDCRGV here?
Answer: Its amyloid nucleation score is “inactive”.

Question: With KPLEDFVDYKMMLMIHEEVC as the substance, how does the amyloid nucleation score read?
Answer: Its amyloid nucleation score is 0.763 ± 0.97.

Question: With VRVKLKGLFGFNWDG as the substance, how does the amyloid nucleation score read?
Answer: The amyloid nucleation score was 0.36 ± 1.2.

Question: With TYMFGHMGADMKGRRSWWCE as the substance, how does the amyloid nucleation score read?
Answer: The amyloid nucleation score was 0.354 ± 0.44.

Question: For FDVMKFYIYLGYSVVPVM, which amyloid nucleation score is on record?
Answer: The amyloid nucleation score was -1.09 ± 0.43.

Question: Which amyloid nucleation score does the source give for RCASHKTQYKRCGGVDEQEA here?
Answer: Its amyloid nucleation score is 1.96 ± 0.58.

Question: Which amyloid nucleation score does the source give for CMRHHMSQHCIPGGPRCRGA here?
Answer: The amyloid nucleation score was -0.912 ± 0.65.

Question: Which amyloid nucleation score does the source give for CRISTGNGVI here?
Answer: Its amyloid nucleation score is “inactive”.

Question: Which amyloid nucleation score does the source give for LVKLIWRISAWHSWFVSR here?
Answer: Its amyloid nucleation score is 1.48 ± 0.8.

Question: Which amyloid nucleation score does the source give for YRLDFGWTMH here?
Answer: Its amyloid nucleation score is 0.3 ± 0.31.

Question: With WGICDLKVCVQPCPSSNARI as the substance, how does the amyloid nucleation score read?
Answer: The amyloid nucleation score was -0.059 ± 0.57.

Question: For INLGFLWTCARDAVFLYDLS, which amyloid nucleation score is on record?
Answer: The amyloid nucleation score was 2.31 ± 0.17.

Question: Which amyloid nucleation score does the source give for RLLGLHWIT here?
Answer: The amyloid nucleation score was 1.5 ± 0.54.

Question: Which amyloid nucleation score does the source give for RHSFGLFVSRLVRFREDGYY here?
Answer: Its amyloid nucleation score is -0.508 ± 0.52.

Question: With TQSGVIQDAACPAMGMSNVL as the substance, how does the amyloid nucleation score read?
Answer: Its amyloid nucleation score is 0.289 ± 0.66.

Question: For DFLMMSVLHHNNVSYS, which amyloid nucleation score is on record?
Answer: The amyloid nucleation score was 1.52 ± 0.66.

Question: With ARVGFTLT as the substance, how does the amyloid nucleation score read?
Answer: The amyloid nucleation score was -0.265 ± 0.87.

Question: With RINVSGWQLQATLSFLLAFS as the substance, how does the amyloid nucleation score read?
Answer: The amyloid nucleation score was 0.289 ± 0.5.

Question: For VLHCCNAESWLGGWPLGVKN, which amyloid nucleation score is on record?
Answer: The amyloid nucleation score was 0.85 ± 0.6.

Question: Which amyloid nucleation score does the source give for MCINIKKNMFR here?
Answer: Its amyloid nucleation score is 4.74 ± 0.048.

Question: Which amyloid nucleation score does the source give for FDYLCSGGMSTILSCITFPL here?
Answer: The amyloid nucleation score was -0.37 ± 0.9.

Question: With VLEDCNMRGK as the substance, how does the amyloid nucleation score read?
Answer: Its amyloid nucleation score is 0.789 ± 0.36.

Question: For CVKASLMMWVQFYIDSY, which amyloid nucleation score is on record?
Answer: The amyloid nucleation score was “inactive”.

Question: For GSCVCECGWIFTARGVRVFK, which amyloid nucleation score is on record?
Answer: The amyloid nucleation score was -0.346 ± 0.42.

Question: Which amyloid nucleation score does the source give for YGHLDPFTKLWSLWGIIMNW here?
Answer: Its amyloid nucleation score is “inactive”.

Question: For YHSWECLHRTANIIWEYFRD, which amyloid nucleation score is on record?
Answer: The amyloid nucleation score was -0.019 ± 0.81.

Question: Which amyloid nucleation score does the source give for DTQESSNIVRSLPRLVGLLG here?
Answer: The amyloid nucleation score was 0.248 ± 0.43.

Question: With IRYCFCKIK as the substance, how does the amyloid nucleation score read?
Answer: Its amyloid nucleation score is 0.312 ± 1.1.

Question: For PSFHICL, which amyloid nucleation score is on record?
Answer: Its amyloid nucleation score is -0.489 ± 0.41.

Question: For YCLDGAFALVVNSLWLITAA, which amyloid nucleation score is on record?
Answer: The amyloid nucleation score was “inactive”.

Question: With IVVFFAPDFCGRQLYDKSKS as the substance, how does the amyloid nucleation score read?
Answer: The amyloid nucleation score was 4.85 ± 0.11.

Question: Which amyloid nucleation score does the source give for LNWMCTNWAMFFYTQVILQY here?
Answer: Its amyloid nucleation score is -0.488 ± 1.1.

Question: Which amyloid nucleation score does the source give for MCGNDWVYGDWIRSEIHGSS here?
Answer: Its amyloid nucleation score is -0.403 ± 0.59.

Question: With RWAWVDYNLCRVCLTKYS as the substance, how does the amyloid nucleation score read?
Answer: Its amyloid nucleation score is -0.161 ± 0.58.

Question: Which amyloid nucleation score does the source give for VRENLNMLEIHRLGGVKKCV here?
Answer: Its amyloid nucleation score is -1.06 ± 0.95.

Question: Which amyloid nucleation score does the source give for SPSFYFH here?
Answer: Its amyloid nucleation score is -0.019 ± 0.98.

Question: For CLSNM, which amyloid nucleation score is on record?
Answer: The amyloid nucleation score was “inactive”.

Question: With TMVCFVLDNCICKSLVTTCL as the substance, how does the amyloid nucleation score read?
Answer: Its amyloid nucleation score is “inactive”.

Question: With YVEFVFNIYSARFEWLLI as the substance, how does the amyloid nucleation score read?
Answer: Its amyloid nucleation score is -0.463 ± 0.75.

Question: Which amyloid nucleation score does the source give for THMGWVMHYSYETTPHARPG here?
Answer: Its amyloid nucleation score is 3.84 ± 0.14.

Question: Which amyloid nucleation score does the source give for RISTCIEILYDS here?
Answer: The amyloid nucleation score was -0.587 ± 0.37.

Question: For QSSSLHKHSFTHVVSQNEGG, which amyloid nucleation score is on record?
Answer: Its amyloid nucleation score is 0.543 ± 0.26.

Question: Which amyloid nucleation score does the source give for YILACAKVTEDPVSVSMKCA here?
Answer: Its amyloid nucleation score is -0.278 ± 0.74.

Question: With LLSIVPPDIFCQFSGHGRLT as the substance, how does the amyloid nucleation score read?
Answer: Its amyloid nucleation score is 0.26 ± 0.62.

Question: Which amyloid nucleation score does the source give for RCNDAFTFTCRPGWMWKWGK here?
Answer: The amyloid nucleation score was 1.75 ± 0.18.

Question: Which amyloid nucleation score does the source give for QGAGAGKITVGTVGVGGTEL here?
Answer: The amyloid nucleation score was “inactive”.

Question: With DLRFSTRLGHCISVFMRKIW as the substance, how does the amyloid nucleation score read?
Answer: The amyloid nucleation score was “inactive”.
